The text below walks through data of article PMC4859069 (2016).

This experiment concerns the target T1, GST-14-3-3ζ (Drosophila melanogaster (Fruit fly), UniProt P29310).
T1 chain: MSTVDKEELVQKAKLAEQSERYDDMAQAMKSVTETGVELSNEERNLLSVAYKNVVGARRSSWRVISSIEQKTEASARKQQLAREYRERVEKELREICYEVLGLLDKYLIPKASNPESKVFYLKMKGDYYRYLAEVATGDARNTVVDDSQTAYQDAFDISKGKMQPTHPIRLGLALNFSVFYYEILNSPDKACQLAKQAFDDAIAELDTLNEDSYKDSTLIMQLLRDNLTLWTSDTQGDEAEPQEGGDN
The experiment is described as follows: GST pull-down.

B1: MBP-Tctp (protein)
chain: MKIYKDIITGDEMFADTYKMKLVDDVIYEVYGKLITRQGDDIKLEGANASAEEADEGTDITSESGVDVVLNHRLTECFAFGDKKSYTLYLKDYMKKVLAKLEEKSPDQVDIFKTNMNKAMKDILGRFKELQFFTGESMDCDGMVALVEYREINGDSVPVLMFFKHGLEEEKC
With B1, the binding result is recorded as “binds”.
